Laboratory results as given in patent US20150322156A1 (TOHOKU UNIVERSITY, published 2015).

Biological target: human EGF receptor 1 (EGFR) as used in the SPR rate analysis (UniProt P00533 25-645, limits assumed)
Test: SPR rate analysis of scFv

| Binder | Ka [M⁻¹] | koff [s⁻¹] | kon [M⁻¹ s⁻¹] |
| --- | --- | --- | --- |
| h528scFv, single-chain antibody of the humanized anti-human EGF receptor 1 (Her1) antibody 528 before lysine substitution (scFv, also called PC) scFv: QVQLVQSGAEVKKPGASVKVSCKASGYTFTSYWMHWVRQAPGQGLEWMGNIYPGSGGTNYAEKFKNRVTMTRDTSISTAYMELSRLRSDDTAVYYCARSGGPYFFDYWGQGTLVTVSSAGGGGSDIVMTQSPLSLPVTPGEPASISCRSSQNIVHNNGITYLEWYLQKPGQSPQLLIYKVSDRFSGVPDRFSGSGSGTDFTLKISRVEAEDVGVYYCFQGSHIPPTFGQGTKVEIKRAAAAEQKLISEEDLNLGGGMRGSHHHHHH | 2.61e+07 | 0.00542 | 141000 |
| lysine-substituted single-chain antibody "OK" containing VH0K and VL0K (all lysine residues replaced) (scFv, Expressed in E. coli; also called VH0K VL0K) scFv: QVQLVQSGAEVAEPGASVQVSCAASGYTFTSYWMHWVRQAPGQGLEWMGNIYPGSGGTNYAEEFQNRVTMTRDTSISTAYMELSRLRSDDTAVYYCARSGGPYFFDYWGQGTLVTVSSGGGGSGGGGSGGGGSDIVMTQSPLSLPVTPGEPASISCRSSQNIVHNNGITYLEWYLQRPGQSPQLLIYQVSDRFSGVPDRFSGSGSGTDFTLTISRVEAEDVGVYYCFQGSHIPPTFGQGTEVEIERHHHHHH | 7.32e+06 | 0.00824 | 60300 |

Results, then the binder that gave them:

| Ka [M⁻¹] | koff [s⁻¹] | kon [M⁻¹ s⁻¹] | Binder |
| --- | --- | --- | --- |
| 8.82e+06 | 0.00805 | 71000 | lysine-substituted single-chain antibody "HK" containing VH1K and VL0K (H19 re-replaced with lysine) (scFv, Expressed in E. coli; also called VH1K VL0K) scFv: QVQLVQSGAEVAEPGASVKVSCAASGYTFTSYWMHWVRQAPGQGLEWMGNIYPGSGGTNYAEEFQNRVTMTRDTSISTAYMELSRLRSDDTAVYYCARSGGPYFFDYWGQGTLVTVSSGGGGSGGGGSGGGGSDIVMTQSPLSLPVTPGEPASISCRSSQNIVHNNGITYLEWYLQRPGQSPQLLIYQVSDRFSGVPDRFSGSGSGTDFTLTISRVEAEDVGVYYCFQGSHIPPTFGQGTEVEIERHHHHHH |
| 8.34e+06 | 0.00853 | 71100 | lysine-substituted single-chain antibody "LK" containing VH0K and VL1K (L108 re-replaced with lysine) (scFv, Expressed in E. coli; also called VH0K VL1K) scFv: QVQLVQSGAEVAEPGASVQVSCAASGYTFTSYWMHWVRQAPGQGLEWMGNIYPGSGGTNYAEEFQNRVTMTRDTSISTAYMELSRLRSDDTAVYYCARSGGPYFFDYWGQGTLVTVSSGGGGSGGGGSGGGGSDIVMTQSPLSLPVTPGEPASISCRSSQNIVHNNGITYLEWYLQRPGQSPQLLIYQVSDRFSGVPDRFSGSGSGTDFTLTISRVEAEDVGVYYCFQGSHIPPTFGQGTKVEIERHHHHHH |
